The supplement of paper PMC10567573

B1: ISL2 (parent)
chain: HYPFLGAMGDHSKKKPGTAMCVGC

Variants of: B1
Assay: protein stability index of a GFP-peptide fusion (GPS, HEK-293T) (PSI 1-6); higher = more stable
Settings: c terminus: a fixed tail appended
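Note: lentivirally expressed fusions sorted by FACS into six bins by GFP to DsRed ratio, PSI derived from sequencing read proportions per bin multiplied by bin number.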

Protein stability index: each site, then its substitutions
K15: Y 2.02 | G 2.37 | E 2.77 | I 2.05 | V 2.13 | P 2.4 | Q 2.52 | C 3.46 | T 2.75 | H 2.47 | A 2.27 | M 2.2 | N 2.61 | F 2.07 | D 2.75 | S 2.52 | L 2.42 | W 1.67
G6: T 2.81 | I 2.27 | N 2.54 | H 2.46 | V 1.93 | S 2.32 | L 2.07 | M 2.07 | A 3.07 | C 3.15 | R 2.13 | E 3.16 | Y 2.49 | D 3.2 | W 1.75 | Q 2.81 | K 2.92 | F 1.86 | P 2.83
L5: Q 3.16 | R 2.66 | N 2.49 | T 2.96 | P 3.13 | S 3.1 | Y 2.2 | V 2.63 | W 2.23
H11: T 2.45 | F 2.19 | Q 3.25 | L 2.21 | V 2.39 | N 2.92 | W 1.93 | I 2.33 | E 3.44 | S 2.35 | K 2.9 | G 2.81 | M 2.74 | R 2.92 | C 2.64 | P 3.16 | Y 1.99 | D 3.5 | A 2.69
G17: W 1.63 | S 2.75 | V 2.26 | N 3.01 | Y 2.58 | M 2.43 | R 2.23 | T 2.8 | I 1.98 | H 3.18 | Q 3.46 | P 2.75 | C 3.97 | E 3.44 | K 3.11 | F 2.46 | A 2.86 | L 2.1 | D 3.35
M8: K 3 | E 3.81 | C 3.33 | T 2.82 | H 2.8 | A 4.25 | G 3.85 | V 2.96 | N 2.94 | W 2.17 | L 3.55 | I 2.3 | S 2.52 | Q 3.16 | F 2.55 | R 3.19 | D 3.52 | Y 2.51 | P 3.07
G23: D 3.32 | C 3.18 | A 2.42
S12: H 2.73 | V 2.58 | G 2.56 | Q 3.07 | P 2.27 | E 3.03 | L 1.99 | D 3.26 | T 2.59 | A 2.53 | K 2.56 | F 2.08 | N 2.92 | M 1.92 | I 1.8 | W 2.52 | R 2.72 | C 3.95 | Y 2.48
G9: P 2.96 | I 1.95 | L 2.4 | M 2.65 | R 2.19 | H 3.05 | V 2.09 | D 2.85 | Y 2.31 | F 1.7 | T 2.82 | S 2.65 | C 3.51 | Q 2.77 | A 3.37 | E 3.58 | K 2.52 | N 2.58 | W 1.86
C21: I 2.69 | Q 3.43 | Y 2.97 | N 3.29 | E 3.39 | D 2.96 | R 2.79 | K 3.81 | W 1.91 | T 3.71 | F 2.71 | M 2.28 | V 2.72 | S 3.37 | P 3.59 | A 2.94 | H 3.04 | L 3.31 | G 3.12
V22: Y 2.34 | P 3.05 | M 2.52 | F 2.16 | E 3.46 | A 3.04 | C 3.39 | I 2.08 | W 1.35 | R 3.57 | S 3.6 | N 3.61 | T 3.42 | K 3.18 | H 3.01 | L 2.42 | G 3.59 | D 3.43 | Q 3.44
D10: W 1.64 | T 2.37 | F 1.81 | S 2.86 | I 2.2 | K 1.88 | V 1.7 | R 2.07 | C 2.6 | A 2.39 | P 2.35 | G 2.18 | H 2.52 | L 2.39 | N 2.07 | E 3.69 | M 1.79 | Q 1.78 | Y 1.56
M20: Y 1.99 | T 3.16 | C 3.18 | S 3.55 | H 2.85 | E 3.62 | L 2.44 | V 2.62 | A 3.27 | G 3.03 | N 3.16 | I 2.29 | P 3.03 | R 3.25 | Q 3.09 | D 3.61 | F 1.87 | W 2.04 | K 3.7
K13: G 2.65 | W 1.9 | R 1.8 | T 2.8 | F 2.34 | E 3.07 | N 2.79 | I 2.04 | L 2.23 | D 3.18 | Y 2.06 | P 2.84 | S 2.64 | H 3.04 | A 2.15 | Q 2.69 | C 3.8 | M 2.31 | V 2.4
P16: V 2.06 | W 2.41 | A 2.52 | E 3.07 | F 1.62 | H 2.61 | I 1.67 | L 2.17 | G 2.19 | Y 2.42 | D 3.02 | K 2.24 | S 2.69 | R 1.99 | Q 2.44 | N 2.7 | C 3.12 | T 2.37 | M 2.45
A19: C 4.28 | T 2.76 | K 2.8 | V 2.37 | D 3.66 | M 2.28 | S 3.72 | Y 2.12 | E 3.29 | H 3.2 | R 2.06 | L 2.56 | P 2.86 | G 2.32 | I 2.16 | N 2.44 | Q 2.91 | W 1.3 | F 1.63
K14: D 3 | R 2.67 | V 2.73 | F 1.98 | A 2.29 | P 2.98 | W 1.51 | S 2.51 | C 4.25 | T 2.58 | Y 1.74 | I 2.78 | M 2.91 | Q 2.45 | G 2.34 | N 2.8 | E 3.44 | L 2.44 | H 3.07
A7: C 3.85 | M 2.31 | T 2.93 | W 1.95 | E 3.79 | V 2.37 | L 2.45 | N 3.6 | K 2.86 | R 2.31 | S 2.74 | Y 1.84 | Q 3.22 | F 1.79 | H 2.45 | P 2.6 | D 3.68 | I 1.9 | G 2.99
T18: H 2.59 | Q 2.67 | Y 2.15 | L 2 | D 3.4 | M 2.67 | V 2.25 | R 1.81 | S 2.76 | E 2.94 | C 3.02 | N 2.71 | P 2.65 | I 2 | K 2.71 | F 2 | A 2.62 | G 2.5 | W 1.47
